Biological target: mlp3a_human MAP1LC3A (UniProt Q9H492)

Substance: BCL2/adenovirus E1B 19 kDa protein-interacting protein 3-like (Mus musculus), Q9Z2F7 L38A
- effect of a mutation on the interaction: disrupting interaction

Source: IntAct's records for PubMed 20010802
